# Laboratory results published in the supplement of paper PMC12458215.
# ± gives the uncertainty stated by the source.
# Tested on: HEK293T
# Experiment: plasma membrane surface immunostaining intensity (anti-HA, deep receptor scanning) (arbitrary fluorescence units); higher = higher plasma membrane expression
Sequence,plasma membrane surface immunostaining intensity (GPCR class: A (Olfactory)),plasma membrane surface immunostaining intensity (GPCR class: A)
MSGENVTRVGTFILVGFPTAPGLQYLLFLLFLLTYLFVLVENLAIILTVWSSTSLHRPMYYFLSSMSFLEIWYVSDITPKMLEGFLLQQKRISFVGCMTQLYFFSSLVCTECVLLASMAYDRYVAICHPLRYHVLVTPGLCLQLVGFSFVSGFTISMIKVCFISSVTFCGSNVLNHFFCDISPILKLACTDFSTAELVDFILAFIILVFPLLATMLSYAHITLAVLRIPSATGCWRAFFTCASHLTVVTVFYTALLFMYVRPQAIDSRSSNKLISVLYTVITPILNPLIYCLRNKEFKNALKKAFGLTSCAVEGRLSSLLELHLQIHSQPL [OR6B3],115 ± 11,
MARENHSLAAEFILIGFTNYPELKTLLFVVFSAIYLVTMVGNLGLVALIYVERRLLTPMYIFLGNLALMDSCCSCAVTPKMLENFFSEDRIISLYECMAQFYFLCLAETTDCFLLATMAYDRYVAICHPLQYHTMMSKTLCIRMTTGAFKAGNLHSMIHVGLLLRLTFCRSNKIHHFFCDILPLYRLSCTDPSINELMIYIFSIPIQIFTIATVLISYLCILLTVFKMKSKEGRGKAFSTCASHFLSVSIFYICLLMYIGPSEEGDKDTPVAIFYAIVIPLLNPFIYSLRNKEVINVLKKIMRNYNILKQTCSIANLFLIY [OR5K4],254 ± 110,
MSANATLKPLCPILEQMSRLQSHSNTSIRYIDHAAVLLHGLASLLGLVENGVILFVVGCRMRQTVVTTWVLHLALSDLLASASLPFFTYFLAVGHSWELGTTFCKLHSSIFFLNMFASGFLLSAISLDRCLQVVRPVWAQNHRTVAAAHKVCLVLWALAVLNTVPYFVFRDTISRLDGRIMCYYNVLLLNPGPDRDATCNSRQVALAVSKFLLAFLVPLAIIASSHAAVSLRLQHRGRRRPGRFVRLVAAVVAAFALCWGPYHVFSLLEARAHANPGLRPLVWRGLPFVTSLAFFNSVANPVLYVLTCPDMLRKLRRSLRTVLESVLVDDSELGGAGSSRRRRTSSTARSASPLALCSRPEEPRGPARLLGWLLGSCAASPQTGPLNRALSSTSS [PTGDR2],,6413 ± 49
MALTPESPSSFPGLAATGSSVPEPPGGPNATLNSSWASPTEPSSLEDLVATGTIGTLLSAMGVVGVVGNAYTLVVTCRSLRAVASMYVYVVNLALADLLYLLSIPFIVATYVTKEWHFGDVGCRVLFGLDFLTMHASIFTLTVMSSERYAAVLRPLDTVQRPKGYRKLLALGTWLLALLLTLPVMLAMRLVRRGPKSLCLPAWGPRAHRAYLTLLFATSIAGPGLLIGLLYARLARAYRRSQRASFKRARRPGARALRLVLGIVLLFWACFLPFWLWQLLAQYHQAPLAPRTARIVNYLTTCLTYGNSCANPFLYTLLTRNYRDHLRGRVRGPGSGGGRGPVPSLQPRARFQRCSGRSLSSCSPQPTDSLVLAPAAPARPAPEGPRAPA [UTS2R],,2430 ± 120
MASSTTRGPRVSDLFSGLPPAVTTPANQSAEASAGNGSVAGADAPAVTPFQSLQLVHQLKGLIVLLYSVVVVVGLVGNCLLVLVIARVRRLHNVTNFLIGNLALSDVLMCTACVPLTLAYAFEPRGWVFGGGLCHLVFFLQPVTVYVSVFTLTTIAVDRYVVLVHPLRRRISLRLSAYAVLAIWALSAVLALPAAVHTYHVELKPHDVRLCEEFWGSQERQRQLYAWGLLLVTYLLPLLVILLSYVRVSVKLRNRVVPGCVTQSQADWDRARRRRTFCLLVVIVVVFAVCWLPLHVFNLLRDLDPHAIDPYAFGLVQLLCHWLAMSSACYNPFIYAWLHDSFREELRKLLVAWPRKIAPHGQNMTVSVVI [PRLHR],,5220 ± 340
MGDNITSITEFLLLGFPVGPRIQMLLFGLFSLFYVFTLLGNGTILGLISLDSRLHAPMYFFLSHLAVVDIAYACNTVPRMLVNLLHPAKPISFAGRMMQTFLFSTFAVTECLLLVVMSYDLYVAICHPLRYLAIMTWRVCITLAVTSWTTGVLLSLIHLVLLLPLPFCRPQKIYHFFCEILAVLKLACADTHINENMVLAGAISGLVGPLSTIVVSYMCILCAILQIQSREVQRKAFCTCFSHLCVIGLFYGTAIIMYVGPRYGNPKEQKKYLLLFHSLFNPMLNPLICSLRNSEVKNTLKRVLGVERAL [OR2A7],117 ± 27,
MGKENCTTVAEFILLGLSDVPELRVCLFLLFLLIYGVTLLANLGMTALIQVSSRLHTPVYFFLSHLSFVDFCYSSIIVPKMLANIFNKDKAISFLGCMVQFYLFCTCGVTEVFLLAVMAYDRFVAICNPLLYMVTMSQKLRVELTSCCYFCGTVCSLIHSSLALRILFYRSNVINHFFCDLPPLLSLACSDVTVNETLLFLVATLNESVTIMIILTSYLLILTTILKIHSAESRHKAFSTCASHLTAITVSHGTILYIYCRPSSGNSGDVDKVATVFYTVVIPMLNPLIYSLRNKDVNKALRKVMGSKIHS [OR5L2],140 ± 35,
